Experimental data as given in IntAct's records for PubMed 23892456.

B1: Homeobox protein NANOG (Mus musculus), Q80Z64 (parent)
chain: MSVGLPGPHSLPSSEEASNSGNASSMPAVFHPENYSCLQGSATEMLCTEAASPRPSSEDLPLQGSPDSSTSPKQKLSSPEADKGPEEEENKVLARKQKMRTVFSQAQLCALKDRFQKQKYLSLQQMQELSSILNLSYKQVKTWFQNQRMKCKRWQKNQWLKTSNGLIQKGSAPVEYPSIHCSYPQGYLVNASGSLSMWGSQTWTNPTWSSQTWTNPTWNNQTWTNPTWSSQAWTAQSWNGQPWNAAPLHNFGEDFLQPYVQLQQNFSASDLEVNLEATRESHAHFSTPQALELFLNYSVTPPGEI

Variants of: B1
Details: with sox2_mouse Sox2, P48432
Chain of sox2_mouse Sox2, P48432 (P48432 whole entry): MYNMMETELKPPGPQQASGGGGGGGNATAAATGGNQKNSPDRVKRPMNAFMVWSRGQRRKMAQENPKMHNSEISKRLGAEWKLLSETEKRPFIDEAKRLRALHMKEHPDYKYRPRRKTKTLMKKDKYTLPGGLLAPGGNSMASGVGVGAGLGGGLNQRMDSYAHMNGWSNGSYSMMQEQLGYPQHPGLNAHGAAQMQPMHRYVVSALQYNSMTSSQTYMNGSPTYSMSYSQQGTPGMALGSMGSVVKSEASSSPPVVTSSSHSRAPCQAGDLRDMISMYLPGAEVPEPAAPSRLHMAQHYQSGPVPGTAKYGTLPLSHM

| effect of a mutation on the interaction | Variant |
| --- | --- |
| disrupting interaction | W198A;W203A;W208A;W213A;W218A;W223A;W228A;W233A;W238A;W243A |
